From the supplement of paper PMC9170038

Tested on: K4 kissing-loop RNA reporter
Assay: apparent KD of K4 kissing-loop reporter; higher = weaker reporter binding
Settings: Eterna round: R107
Description: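 RNA-MaP round R107: designed RNA switches with theophylline, tryptophan, arginine or FMN aptamers are transcribed on-chip within common flanks. They are titrated with a labelled K4 kissing-loop RNA reporter in RNA-MaP buffer (100 mM Tris pH 7.5, 80 mM KCl, 4 mM MgCl2), without ligand or with the indicated ligand. Median apparent KD per design.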

[1] = input ligand: theophylline 20 uM
[2] = input ligand: tryptophan 2.4 mM
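Note: bound reporter read as fluorescence of individual clusters on recovered sequencing chips by microscopy, with normalized cluster intensities fitted with a binding model.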

| Sequence | apparent KD of K4 kissing-loop reporter (input ligand: FMN 200 uM) | apparent KD of K4 kissing-loop reporter (input ligand: arginine 13.2 mM) | apparent KD of K4 kissing-loop reporter (input ligand: none) | apparent KD of K4 kissing-loop reporter [1] | apparent KD of K4 kissing-loop reporter [2] |
| --- | --- | --- | --- | --- | --- |
| ACGUGCACCAGUGAUGUUGGAAAAUAUGAAGGAGCGGGUGAAAGCCCAGGUAGGUCGCAUAAUAGCACGAGCCACGAAAGUGGCA | 131 nM | 175 nM | 184 nM | 154 nM | 117 nM |
| UUUGGUUUCUCGGCCGCCACUCGUUGGUAAUGGGCCUCAGGGAUAUAGUGAUGUUAUGUAAAGAAGAGGACCGGGAGAAGGAAGG [ExTryptoB.Dn] | 235 nM | 229 nM | 303 nM | 267 nM | 156 nM |
| UACUUAUAUUUCAACUUAAAUUAUUCAGAAGGAGCGUGAUCAUUCACAGGUAGGUCGCUGAACUAGUGAUGUUAGUUUUAAUUUU [JR_Nu_ExcArginiA_Sub022] | 66.3 nM | 127 nM | 76.5 nM | 116 nM | 62.2 nM |
| AAAAUAAACCAGUGAUGUUGGUGUCUAGAUACCAGCGACAAAAGUCGCCCUUGGCAGCUACGGACGUACAAAAUAAGUACGUCCU [MatMod 9 - Jieux - Same State - Theophylline A] | 468 nM | 353 nM | 472 nM | 481 nM | 405 nM |
| UUUAACGAGUGAUGUUCGAAAAGUAAUGGUGAGGAUAUCGAUUUUUCGAGAAGGCACCUCGAAGUGAUACGAAAGUAUCGCUUCG [FMN A 4] | 173 nM | 276 nM | 261 nM | 257 nM | 199 nM |
| UGGAGUUGACGAAAAGUCAACUCCUGGGAAGGAGCGGACGAAAGUCCAGGUAGGUCGCUCACUACCAGUGAUGUUGGUACUUAAA | 229 nM | 350 nM | 293 nM | 299 nM | 206 nM |
| UAUGUACACGGGUAGUGAUACAUCGAGGAAGGAGCGUGCGCAGGCACAGGUAGGUCGCCUCAGCGCACGAGUGAUGUUCGUGGGC [Veti] | 471 nM | 325 nM | 393 nM | 380 nM | 376 nM |
| AUAAUAUGAGUGAUGUUCAUGAAACCUGAAGGAGCGGACGAAAGUCCAGGUAGGUCGCAGGACUCCUUCAACAUGGGAGAGGGAG [KL-SSArg-A8 #analogue] | 153 nM | 180 nM | 166 nM | 194 nM | 150 nM |
| AUUAUAUAGGCGGCCGCCACUAGUGAUGUUAGUGAUGUCAUAAUAUAAUGAUAAAUUAUAUUGCGUAGGACCGGGCCUAAAUAUU [#15 K4 Tryptophan B Exclusion] | 108 nM | 62.3 nM | 86.3 nM | 100 nM | 111 nM |
| UACUUAUAGUUAUUUCUAAAUUUAUUUAGUCAGGAUAUCGAAUAGUCGAGAAGGGACAUAAUCAAGUGAUGUUUGAUUAUUCAAA [JR_SSFMNA_Sub023] | 64.8 nM | 96.1 nM | 84.8 nM | 88.8 nM | 69.6 nM |
| CCGAAGAACCAGUGAUGUUGGUUGACUAGACAGGAUAUGAGCAACAUCAGAAGGGUCUGGCUUCGGGAGUGGGUUGCGCUGACCU [Onbizaes] | 283 nM | 259 nM | 616 nM | 296 nM | 576 nM |
| UAGCGCAACCUGCUUACGUAUGAGCCGGAAGGAGCGGCAGAAUUGCCAGGUAGGUCGCCGGCCCAGUGAUGUUGGGAUGGUGUGG [Usritiis] | 265 nM | 226 nM | 252 nM | 223 nM | 228 nM |
| AUUUUUUUAUCAGGAUAUUAGUGAUGGUUGUUUUUGUUAGUGAUGUUGAUAUUUGUUUUAUGUAUUUAAGAAGGGAUUGAGAUGU [zbbzmullin] | 68.1 nM | 24.7 nM | 42.9 nM | 31.7 nM | 49.7 nM |
| UAUAUAGUGACGGCCGCCACUAUAGUAAUGUUUUUGUUAGAGUGAUGUUUUGUUUUUUAAUUUUAUAGGACCGGGUUAUAUGUUA [llpmullin] | 360 nM | 218 nM | 374 nM | 376 nM | 240 nM |
| UCCUUUGUUGCCAGUGAUGUUGGACAGGAAGGAGCGGGCAUAAGCCCAGGUAGGUCGCCUGUCAACUUUCUUAUAGCCCGAAGGU [KL-XArg-A19] | 441 nM | 352 nM | 368 nM | 424 nM | 370 nM |
| GGCACGGUAACGCAACCGCCGUGCGCUUGGGAGGAUAUGUUUCGUGACAGAAGGCCCAGUGAUGUUGGGUCUGUUCAAAAGGACU [Ceenerus] | 355 nM | 124 nM | 105 nM | 122 nM | 88.7 nM |
| GGAUAGGACGGAGGAUAUGGGCUAGGCAAGAAUAACUUGUCUAGCAAAUCCAUGAGGAGUGAUGUUCCAGAAGGUUGUCCUAUCG [FmnBX 1 G10+U75] | 167 nM | 94.7 nM | 85.2 nM | 106 nM | 75.4 nM |
| AAUUUAUUAACUGAUACCAGACUUUAUUAUUUGUAAAUUACUAGUGAUGUUAGUGUUUCUGUCCCUUGGCAGCAGUAUUUAUUAA [JR_SSTheophyB_Sub024] | 78.8 nM | 142 nM | 90.3 nM | 134 nM | 70.5 nM |
| CUCGAGUGAUGUUCGAUUAUUUAUACAGAUACCAGUGAAUUUUAACACCCUUGGCAGCUGGUAGUAUCGUUGUAAUUUACACAAG [JR_ExcTheophyA_Sub004] | 99.8 nM | 163 nM | 116 nM | 168 nM | 87.9 nM |
| ACCUAGUAGACAGGAUAUCACGAUGACAGUGAUGUUGUCAUCAUCGAUUUGAGGAAACUCAGAUCGUGAGAAGGGUCUAACGACU [FMN B SS t7a] | 147 nM | 173 nM | 204 nM | 168 nM | 190 nM |
| UCCACGCUUCGAGGAUAUCGGAUUAGAGUGAUGUUCUAAAGACGCCCAGUGAUGUUGGAUGCGAUACGAGAAGGCGGUGGCGUGU [Same State FMN B GF6] | 236 nM | 195 nM | 244 nM | 140 nM | 176 nM |
| GUAUCGCUAGGAGGAUAUUUCAAUUCGUCAAUAAAUGGUGAUACGGAGUGAUGUUCCGAUUUACGGAAAGAAGGCCUAGUGAUAC [FMN B 7] | 173 nM | 265 nM | 298 nM | 287 nM | 285 nM |

| Sequence | apparent KD of K4 kissing-loop reporter (input ligand: FMN 200 uM) | apparent KD of K4 kissing-loop reporter (input ligand: arginine 13.2 mM) | apparent KD of K4 kissing-loop reporter (input ligand: none) | apparent KD of K4 kissing-loop reporter [1] | apparent KD of K4 kissing-loop reporter [2] |
| --- | --- | --- | --- | --- | --- |
| AAUUUUAAUCAUAAAUAAUAAAUAAAUGAUACCAGUAUUUUUUUUUACCCUUGGCAGCGUAUAUAAGGGCAGUGAUGUUGUCAGA [whbob_SS_Theo_A_w60] | 236 nM | 98.8 nM | 257 nM | 222 nM | 164 nM |
| UGAUACCAGACGGCCGCCACUCCCGCAGGUCAAAGACCUGCGAAGCUGGUUCUUCAGUGAUGUUGGAGGACCGGGUCUGGUAUCU [FiskerMod 24 - Jieux - Exclusion - Tryptophan B] | 306 nM | 230 nM | 266 nM | 263 nM | 504 nM |
| UGACUGGACUGAAGGAGCGCUGAAGGAGCGUAAGCAGUGAUGUUGCUUACAGGUAGGUCGCAGCAGGUAGGUCGCAGUCUAGUCU | 93.5 nM | 78.7 nM | 93.4 nM | 90 nM | 99.6 nM |
| AACCGUGUGGCGGCCGCCACUAGUCUCCAGUGAUGUUGGAGAGACCACGUAAGUGGUCUCCAACAUAGGACCGGGCCAUAUGGAA [Same State - Tryptophan B (Freestyle 26)] | 204 nM | 78.5 nM | 106 nM | 132 nM | 259 nM |
| GGUAGCAUGGCGGCCGCCACUAUCCUUCAUGGUUGACAUUAAGGAUAGCAUAGUGAUGUUAUGAAUAGGACCGGGCCAUGCUACC | 175 nM | 136 nM | 163 nM | 137 nM | 149 nM |
| CAUACGCAUGGAGGAUAUGAGAUUUUUCAUAUUAUUUUUUAUUCUCAGUGAUGUUGGGAUUUAUAAUCAGAAGGCCAUGUGUAUG [Ex FMN B 11] | 88.4 nM | 79.2 nM | 84.9 nM | 94.7 nM | 88.9 nM |
| AGUGAUAUAUGAGGAUAUGGGAUUGUUAAUGAGUUAGUUUUAGUGUUGUUUGGUUAGUGAUGUUAUUUAGAAGGCGUGAGUGAUG [kuktrmullin] | 93.6 nM | 87.4 nM | 96 nM | 116 nM | 70.4 nM |
| CUUCGAUUAACAGAUACCAGUCACUUGGGAGCCACACACAAGUGAGUGAUGUUCACUUGUGACCCUUGGCAGCUGUUAGUCGAAG [#04 K4 Theophylline B Exclusion] | 102 nM | 86.5 nM | 97.2 nM | 127 nM | 103 nM |
| UUUGUAGUGGGAGGAUAUCCUAAUAUGGGUGAUGUUAGCGAUGUUGAAGGUGUAGUGAUGUUAUGCGGAGAAGGCCCACUGUAGA [BDazzled - #20 - Exc. FMN B] | 543 nM | 221 nM | 189 nM | 614 nM | 253 nM |
| CAUACGCAUGGAGGAUAUGAGAUUUCUCAUGUCAUUUAAUAUUCUCAGUGAUGUUGAGAUUUUGGCUCAGAAGGCCAUGUGUAUG [Ex FMN B 19] | 176 nM | 249 nM | 281 nM | 297 nM | 273 nM |
| AAAGACUGACUGCAAUUAGCAGUCAGUCAACGAGGACCGGUACGGCCGCCACUCGGGUCCUAGAGUGAUGUUCUAAUAAUAUAAA [AK1.2 SS Tryptophan A] | 374 nM | 495 nM | 319 nM | 490 nM | 207 nM |
| CAUUAAACUCAAACUAUUGGGUUUACGUUCCGAGGACCGGUACGGCCGCCACUCGGUCGAUGCUAUACCAUACGAGUGAUGUUCG [theeternabot_sameState_KL_Trp_A_1] | 465 nM | 452 nM | 502 nM | 404 nM | 352 nM |
| CUUAGGUCAGUUACCCGAGUGAUGUUCUGUCGAGGACCGGUACGGCCGCCACUCGCUCAUUAUCGGUCUGACAAAGAGCUGGCUU [theeternabot_exclusion_KL_Trp_A_9] | 393 nM | 56.4 nM | 208 nM | 136 nM | 106 nM |
| UACGCCACAGACGUGGAGUACCUUGGGUCGAAGGAUAUCAGCAUUGUGAGAAGGUCGCCGAUUCUAAGUGAUGUUUAGAUCAGGG [theeternabot_sameState_KL_FMN_A_2] | 132 nM | 275 nM | 446 nM | 567 nM | 409 nM |
| UGGCGGACGAUCCGGAGUGAUGUUCCGGAUACCAGCAGAAGAGCCUGCCCUUGGCAGCCGUACGACGCUGGGAGAGUCCGGCGUC [Soteina] | 83.8 nM | 90.3 nM | 81.1 nM | 66.7 nM | 76.9 nM |
| UCGAUCGCUAGUGAUGUUGGUGUGCUACAUCGAGGACCGGUACGGCCGCCACUCGAGCCCGAGUAGAAGGGUGGGCUGCUAUGAA [theeternabot_sameState_KL_Trp_A_18] | 1510 nM | 1030 nM | 1190 nM | 743 nM | 895 nM |
| UAUUAAUUGUCAGGAUAUCGAAAUCGAGUGAUGUUCGUAAAUUAAUUAUUAUUAAUAAUAUUUAAACGAGAAGGGACAUUAUUUA [JR_SSFMNB_Sub001] | 235 nM | 558 nM | 694 nM | 647 nM | 442 nM |
| AACUGGGUUCGUGAUACCAGCUCACACAUGAGUGAUGUUGAUGUAGUGGGCAAAAUGUGGAGCCCUUGGCAGCACUGUGACCACG [XTheo-B3] | 422 nM | 358 nM | 411 nM | 378 nM | 371 nM |
| UGAUACCAGACUGAUACCAGCCAGUGAUGUUGGCUAAGCCAAAUAGGUGUCAAAGACACCGGCCCUUGGCAGCAGUCUGGUAUCU [TheoBX 2 #SwitchBubble #StaticStem] | 133 nM | 113 nM | 126 nM | 136 nM | 119 nM |
| CCCUAAAUAUGCAGUGAUGUUGCAACUGAUACCAGUAUCGAAAGAUACCCUUGGCAGCGGAAAACCGCUACGUAAUUUAAAAGGG [Ex Theophylline A K4 19] | 243 nM | 327 nM | 356 nM | 385 nM | 243 nM |
| UCGCGUCUGUGAGGAUAUCAGAACAGAGUGAUGUUCUGUCAACGCCCAGUGAUGUUGGAUGCGAUCUGAGAAGGCACUGGGCGCA [Same State FMN B GF 9] | 1060 nM | 865 nM | 1320 nM | 1700 nM | 1160 nM |
